Results reported in article PMC3825817 (DNA repair, 2013).

T1: human DNA polymerase δ p125 catalytic subunit (human, UniProt P28340 1-1107)
T1 sequence (looked up): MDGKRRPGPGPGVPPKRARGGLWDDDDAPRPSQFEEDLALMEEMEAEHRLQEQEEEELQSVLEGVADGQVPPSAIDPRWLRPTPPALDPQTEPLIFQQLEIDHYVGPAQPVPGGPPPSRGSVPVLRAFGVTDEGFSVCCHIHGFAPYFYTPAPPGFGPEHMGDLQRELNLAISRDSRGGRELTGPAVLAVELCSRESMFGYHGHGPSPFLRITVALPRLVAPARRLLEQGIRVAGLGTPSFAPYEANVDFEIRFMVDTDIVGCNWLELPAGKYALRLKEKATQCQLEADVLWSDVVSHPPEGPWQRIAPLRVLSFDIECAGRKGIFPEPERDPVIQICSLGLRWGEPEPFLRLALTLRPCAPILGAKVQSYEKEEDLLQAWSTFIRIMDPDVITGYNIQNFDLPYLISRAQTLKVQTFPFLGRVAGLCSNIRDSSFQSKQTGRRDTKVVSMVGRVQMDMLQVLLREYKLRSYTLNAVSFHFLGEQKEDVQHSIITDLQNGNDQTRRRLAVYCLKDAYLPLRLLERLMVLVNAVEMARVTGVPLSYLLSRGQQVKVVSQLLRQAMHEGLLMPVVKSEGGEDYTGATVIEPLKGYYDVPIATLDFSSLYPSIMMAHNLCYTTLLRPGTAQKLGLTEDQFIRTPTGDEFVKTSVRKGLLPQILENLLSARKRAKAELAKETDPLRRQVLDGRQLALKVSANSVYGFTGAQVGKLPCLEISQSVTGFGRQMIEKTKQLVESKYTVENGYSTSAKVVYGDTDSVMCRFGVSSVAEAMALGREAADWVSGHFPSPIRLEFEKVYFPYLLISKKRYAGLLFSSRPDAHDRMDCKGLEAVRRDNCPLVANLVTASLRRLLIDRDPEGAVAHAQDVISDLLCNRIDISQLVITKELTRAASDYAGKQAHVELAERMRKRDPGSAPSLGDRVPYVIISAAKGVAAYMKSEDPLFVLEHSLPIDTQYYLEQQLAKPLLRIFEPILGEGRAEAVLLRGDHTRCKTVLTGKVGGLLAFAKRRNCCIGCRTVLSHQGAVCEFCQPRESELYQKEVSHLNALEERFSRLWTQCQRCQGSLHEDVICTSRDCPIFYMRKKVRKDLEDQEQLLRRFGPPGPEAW


Molecular target: T1, human DNA polymerase δ p125 catalytic …
Assay: immunoaffinity co-purification, SDS-PAGE

Row | stoichiometry N | Binder
1 | ~1 | human DNA polymerase δ p12 subunit (natural protein, UniProt Q9HCU8 1-107, looked up) MGRKRLITDSYPVVKRREGPAGHSKGELAPELGEEPQPRDEEEAELELLRQFDLAWQYGPCTGITRLQRWCRAKQMGLEPPPEVWQVLKTHPGDPRFQCSLWHLYPL
2 | ~1 | human DNA polymerase δ p68 subunit (natural protein, UniProt Q15054 1-466, looked up) MADQLYLENIDEFVTDQNKIVTYKWLSYTLGVHVNQAKQMLYDYVERKRKENSGAQLHVTYLVSGSLIQNGHSCHKVAVVREDKLEAVKSKLAVTASIHVYSIQKAMLKDSGPLFNTDYDILKSNLQNCSKFSAIQCAAAVPRAPAESSSSSKKFEQSHLHMSSETQANNELTTNGHGPPASKQVSQQPKGIMGMFASKAAAKTQETNKETKTEAKEVTNASAAGNKAPGKGNMMSNFFGKAAMNKFKVNLDSEQAVKEEKIVEQPTVSVTEPKLATPAGLKKSSKKAEPVKVLQKEKKRGKRVALSDDETKETENMRKKRRRIKLPESDSSEDEVFPDSPGAYEAESPSPPPPPSPPLEPVPKTEPEPPSVKSSSGENKRKRKRVLKSKTYLDGEGCIVTEKVYESESCTDSEEELNMKTSSVHRPPAMTVKKEPREERKGPKKGTAALGKANRQVSITGFFQRK
3 | ~1 | human DNA polymerase δ p50 subunit (natural protein) not shown
